The target in assay [1] is CRD from SRCL (UniProt Q5KU26). Put plainly: radioligand binding.
The target of assay [2] is Lactoferrin from human neutrophils (human). Put plainly: SPR.

UniProt Q5KU26, sequence (Q5KU26 whole entry): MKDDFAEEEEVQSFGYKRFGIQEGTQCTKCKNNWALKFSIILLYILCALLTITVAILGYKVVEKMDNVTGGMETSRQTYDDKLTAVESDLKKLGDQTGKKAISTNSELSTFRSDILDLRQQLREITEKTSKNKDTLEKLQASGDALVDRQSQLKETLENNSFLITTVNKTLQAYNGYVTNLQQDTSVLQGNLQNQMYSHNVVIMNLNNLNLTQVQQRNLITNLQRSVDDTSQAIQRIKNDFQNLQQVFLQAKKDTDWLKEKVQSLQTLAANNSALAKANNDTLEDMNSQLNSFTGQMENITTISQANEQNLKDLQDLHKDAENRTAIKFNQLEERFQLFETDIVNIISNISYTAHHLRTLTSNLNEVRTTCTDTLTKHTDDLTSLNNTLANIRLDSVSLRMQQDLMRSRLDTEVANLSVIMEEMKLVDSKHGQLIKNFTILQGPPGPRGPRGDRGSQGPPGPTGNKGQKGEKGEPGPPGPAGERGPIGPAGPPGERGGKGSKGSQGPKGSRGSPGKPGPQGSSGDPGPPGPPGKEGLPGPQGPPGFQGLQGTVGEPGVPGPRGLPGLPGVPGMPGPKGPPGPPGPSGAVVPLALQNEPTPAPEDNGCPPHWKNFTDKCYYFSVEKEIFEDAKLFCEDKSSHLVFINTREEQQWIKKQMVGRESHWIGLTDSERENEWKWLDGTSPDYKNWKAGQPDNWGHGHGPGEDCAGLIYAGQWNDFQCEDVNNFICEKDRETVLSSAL

The Ki is the dissociation constant of the complex between target and ligand, obtained from inhibition or displacement. A low value points to a stronger hold on the target. In the case of “Lactoferrin from human neutrophils (natural protein)”, the Ki in assay [1] amounted to 6.1 µM.
Usually Kd stands for the equilibrium constant for the complex coming apart. Higher therefore signals lower affinity. As to “CRD from SRCL (from UniProt Q5KU26 1-742) (domain or fragment)”, in assay [2], the Kd is 4.7 µM.
